Data as given in patent publication US20050261472A1, “Binding moieties for fibrin” (Dyax Corp., priority 1999, published 2005).
Bridge positions count the residues as written; N and C are the ends. Square brackets hold non-standard residues; d marks the D form. Peptide text beside a SMILES is read from it. hSer = N[C@@H](CCO)C(=O)O

B1: alanine scan peptide … (peptide)
peptide: H-LPCAYYGTCLD-NH2
modifications: disulfide 3-9
SMILES: CC(C)C[C@H](NC(=O)[C@@H]1CSSC[C@H](NC(=O)[C@@H]2CCCN2C(=O)[C@@H](N)CC(C)C)C(=O)N[C@@H](C)C(=O)N[C@@H](Cc2ccc(O)cc2)C(=O)N[C@@H](Cc2ccc(O)cc2)C(=O)NCC(=O)N[C@@H]([C@@H](C)O)C(=O)N1)C(=O)N[C@@H](CC(=O)O)C(N)=O
B2: alanine scan peptide … (peptide)
peptide: H-LPCDAYGTCLD-NH2
modifications: disulfide 3-9
SMILES: CC(C)C[C@H](NC(=O)[C@@H]1CSSC[C@H](NC(=O)[C@@H]2CCCN2C(=O)[C@@H](N)CC(C)C)C(=O)N[C@@H](CC(=O)O)C(=O)N[C@@H](C)C(=O)N[C@@H](Cc2ccc(O)cc2)C(=O)NCC(=O)N[C@@H]([C@@H](C)O)C(=O)N1)C(=O)N[C@@H](CC(=O)O)C(N)=O
B3: synthetic polypeptide … (peptide)
peptide: H-FACHYYGTCLH-NH2
modifications: disulfide 3-9
SMILES: CC(C)C[C@H](NC(=O)[C@@H]1CSSC[C@H](NC(=O)[C@H](C)NC(=O)[C@@H](N)Cc2ccccc2)C(=O)N[C@@H](Cc2c[nH]cn2)C(=O)N[C@@H](Cc2ccc(O)cc2)C(=O)N[C@@H](Cc2ccc(O)cc2)C(=O)NCC(=O)N[C@@H]([C@@H](C)O)C(=O)N1)C(=O)N[C@@H](Cc1c[nH]cn1)C(N)=O
B4: alanine scan peptide … (peptide)
peptide: H-LPCDYYGTCAD-NH2
modifications: disulfide 3-9
SMILES: CC(C)C[C@H](N)C(=O)N1CCC[C@H]1C(=O)N[C@H]1CSSC[C@@H](C(=O)N[C@@H](C)C(=O)N[C@@H](CC(=O)O)C(N)=O)NC(=O)[C@H]([C@@H](C)O)NC(=O)CNC(=O)[C@H](Cc2ccc(O)cc2)NC(=O)[C@H](Cc2ccc(O)cc2)NC(=O)[C@H](CC(=O)O)NC1=O
B5: synthetic polypeptide … (peptide)
peptide: H-LPCSYYGTCLH-NH2
modifications: disulfide 3-9
SMILES: CC(C)C[C@H](NC(=O)[C@@H]1CSSC[C@H](NC(=O)[C@@H]2CCCN2C(=O)[C@@H](N)CC(C)C)C(=O)N[C@@H](CO)C(=O)N[C@@H](Cc2ccc(O)cc2)C(=O)N[C@@H](Cc2ccc(O)cc2)C(=O)NCC(=O)N[C@@H]([C@@H](C)O)C(=O)N1)C(=O)N[C@@H](Cc1c[nH]cn1)C(N)=O
B6: synthetic polypeptide … (peptide)
peptide: H-RPCDYYGTCFD-NH2
modifications: disulfide 3-9
SMILES: C[C@@H](O)[C@@H]1NC(=O)CNC(=O)[C@H](Cc2ccc(O)cc2)NC(=O)[C@H](Cc2ccc(O)cc2)NC(=O)[C@H](CC(=O)O)NC(=O)[C@@H](NC(=O)[C@@H]2CCCN2C(=O)[C@@H](N)CCCNC(=N)N)CSSC[C@@H](C(=O)N[C@@H](Cc2ccccc2)C(=O)N[C@@H](CC(=O)O)C(N)=O)NC1=O
B7: alanine scan peptide … (peptide)
peptide: H-LACDYYGTCLD-NH2
modifications: disulfide 3-9
SMILES: CC(C)C[C@H](NC(=O)[C@@H]1CSSC[C@H](NC(=O)[C@H](C)NC(=O)[C@@H](N)CC(C)C)C(=O)N[C@@H](CC(=O)O)C(=O)N[C@@H](Cc2ccc(O)cc2)C(=O)N[C@@H](Cc2ccc(O)cc2)C(=O)NCC(=O)N[C@@H]([C@@H](C)O)C(=O)N1)C(=O)N[C@@H](CC(=O)O)C(N)=O
B8: synthetic polypeptide … (peptide)
peptide: H-RPCNYYGTCLH-NH2
modifications: disulfide 3-9
SMILES: CC(C)C[C@H](NC(=O)[C@@H]1CSSC[C@H](NC(=O)[C@@H]2CCCN2C(=O)[C@@H](N)CCCNC(=N)N)C(=O)N[C@@H](CC(N)=O)C(=O)N[C@@H](Cc2ccc(O)cc2)C(=O)N[C@@H](Cc2ccc(O)cc2)C(=O)NCC(=O)N[C@@H]([C@@H](C)O)C(=O)N1)C(=O)N[C@@H](Cc1c[nH]cn1)C(N)=O

Target: DD(E) soluble fibrin-derived polypeptide (UniProt P02671)
Assay: Kd against DD(E) target
Conditions: not given

Row | Kd | Molecule
1 | 6.7 µM | GFHCPYDLCHIL
2 | 5.9 µM | B1
3 | 4.5 µM | B2
4 | 7.3 µM | B3
5 | 2.23 µM | ECPYGLCWIQ
6 | 3.8 µM | HCPYDLCHIL
7 | 10.1 µM | B4
8 | 9.8 µM | B5
9 | 22 µM | H-CDYYGTCL-NH2 (disulfide 1-7 (inferred)) [truncated peptide CDYYGTCL]
10 | 28 µM | H-LPCDYYGVCLD-NH2 (disulfide 3-9 (inferred))
11 | 50 µM | H-PCDYYGTCL-NH2 (disulfide 2-8 (inferred)) [truncated peptide …]
12 | 0.41 µM | FHCPYDLCHIL
13 | 0.94 µM | WECPYGLCWIQ
14 | 3.4 µM | B6
15 | 4.9 µM | LPCDYYXTCLD (not fully specified; D-alanine at position 7) [D-alanine peptide LPCDYYdATCLD]
16 | 38 µM | H-CDYYGTC-NH2 (disulfide 1-7 (inferred)) [truncated peptide CDYYGTC]
17 | 2 µM | FHCPYDLCHI
18 | 2.9 µM | B7
19 | 4 µM | B8
20 | 3.87 µM | WECPYGLCWI
21 | 2.6 µM | H-LPCDYYGTCLD-NH2 (disulfide 3-9 (inferred))
22 | 125 µM | LPCDYXGTCLD (1-naphthyl residue (Nal) at position 6; C-terminal amide; N-terminus free) [substituted peptide LPCDYNalGTCLD]
23 | 12.3 µM | LPCDYYATCLD (C-terminal amide; N-terminus free)
24 | 26 µM | H-LPCDYYGSCLD-NH2 (disulfide 3-9 (inferred))

Target: T1, DD(E) (Homo sapiens, UniProt P02671+P02675+P02679)
T1 construct: host or cells: purchased fibrinogen clotted with thrombin, digested with plasmin, then purified by ammonium sulfate cuts and Sephacryl S200
T1 sequence (P02671 130-216): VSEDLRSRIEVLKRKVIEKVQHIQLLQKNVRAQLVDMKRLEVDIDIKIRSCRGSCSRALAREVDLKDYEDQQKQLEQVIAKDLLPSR
T1 sequence (P02675 164-491): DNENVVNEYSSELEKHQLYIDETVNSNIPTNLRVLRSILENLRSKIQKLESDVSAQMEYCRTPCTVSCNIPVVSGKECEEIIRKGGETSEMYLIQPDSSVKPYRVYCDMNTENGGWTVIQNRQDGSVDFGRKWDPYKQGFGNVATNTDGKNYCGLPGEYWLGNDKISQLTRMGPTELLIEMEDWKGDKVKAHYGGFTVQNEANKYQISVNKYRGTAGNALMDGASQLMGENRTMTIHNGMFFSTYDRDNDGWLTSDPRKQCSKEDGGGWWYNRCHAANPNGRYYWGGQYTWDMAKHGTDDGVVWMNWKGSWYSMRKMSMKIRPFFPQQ
T1 sequence (P02679 114-432): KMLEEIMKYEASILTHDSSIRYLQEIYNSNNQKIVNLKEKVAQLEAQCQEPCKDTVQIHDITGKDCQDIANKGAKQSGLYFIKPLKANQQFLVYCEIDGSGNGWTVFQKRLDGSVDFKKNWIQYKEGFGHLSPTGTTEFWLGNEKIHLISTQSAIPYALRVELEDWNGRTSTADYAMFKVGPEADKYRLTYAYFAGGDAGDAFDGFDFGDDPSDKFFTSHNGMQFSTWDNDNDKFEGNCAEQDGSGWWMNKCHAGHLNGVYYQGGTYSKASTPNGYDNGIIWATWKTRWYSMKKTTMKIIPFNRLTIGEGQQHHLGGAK
T1 sequence (P02671 36-97): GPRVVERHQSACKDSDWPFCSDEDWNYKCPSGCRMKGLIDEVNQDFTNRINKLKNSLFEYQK
T1 sequence (P02675 45-152): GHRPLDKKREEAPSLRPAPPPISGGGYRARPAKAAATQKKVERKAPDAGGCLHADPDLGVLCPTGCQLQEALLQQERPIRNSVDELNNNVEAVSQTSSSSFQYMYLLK
T1 sequence (P02679 27-88): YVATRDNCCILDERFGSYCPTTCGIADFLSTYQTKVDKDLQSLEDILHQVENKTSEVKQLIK
Assay: dissociation constant against fibrin-derived polypeptide DD(E)
Format: binding
Conditions: read-out: Kd DD(E)
Experimental: The soluble fibrin-derived polypeptide DD(E) was prepared following a modification of a published method (Moskoitz and Budzynksi, Biochemistry, 33: 12937-12944 (1994) and references therein). Fibrinogen containing a Factor XIII trace impurity (1 g, Grade L; purchased from American Diagnostica) was dissolved in TBS buffer and dialyzed overnight against TBS containing 5 mM citrate. The fibrinogen concentration was adjusted to 3.0 mg/ml and CaCl2 was added to a concentration of 10 mM. Clotting of the fibrinogen was initiated by the addition of thrombin to 0.5 U/ml and the clot was incubated for 3 hours at 37° C. The clot was cut up with a spatula to release water and to concentrate the clot. The clot pieces were washed twice with TBS.Ca buffer (TBS containing 2 mM CaCl2) and were centrifuged at 4,000×g to compact the clots between washes. The clot material was resuspended in 250 ml TBS containing 25 mM CaCl2 and 2 K.I.U. plasmin per mg fibrin. The clots were digested overnight at 20° C. Undigested clot was removed by pipette, and the supernatant was shaken with 10 ml of Lysine Sepharose (Pharmacia) for 30 minutes and filtered to remove the resin. Aprotinin was added to the filtrate to a concentration of 500 U/μL. Ammonium Sulfate was added to 30% saturation and the precipitated protein was removed by centrifugation. More ammonium sulfate was added to the supernatant to a final concentration of 50% saturation, and the precipitated protein was concentrated by centrifugation. The pellets, containing DD(E), were resuspended in a small volume of buffer (50 mM Tris, 150 mM NaCl, 2 mM CaCl2) (<10 ml) and chromatographed on a Sephacryl S200 (Pharmacia) size exclusion column (5×100 cm) in the same buffer. Fractions of protein eluted from the column were assayed by SDS-PAGE for DD(E). DD(E) contains subunits of 55 kD (Fragment E) and 190 kD (Fragment DD). […]
Dissociation constants were determined against DD(E) as described above.

Row | Kd | Molecule
25 | 3.87 µM | CC[C@H](C)[C@H](NC(=O)[C@H](Cc1c[nH]c2ccccc12)NC(=O)[C@@H]1CSSC[C@H](NC(=O)[C@H](CCC(=O)O)NC(=O)[C@@H](N)Cc2c[nH]c3ccccc23)C(=O)N2CCC[C@H]2C(=O)N[C@@H](Cc2ccc(O)cc2)C(=O)NCC(=O)N[C@@H](CC(C)C)C(=O)N1)C(N)=O [SEQ ID NO: 63, WECPYGLCWI] (H-WECPYGLCWI-NH2; disulfide 3-8; N-terminus and C-terminus assumed)
26 | 6.7 µM | CC[C@H](C)[C@H](NC(=O)[C@H](Cc1c[nH]cn1)NC(=O)[C@@H]1CSSC[C@H](NC(=O)[C@H](Cc2c[nH]cn2)NC(=O)[C@H](Cc2ccccc2)NC(=O)CN)C(=O)N2CCC[C@H]2C(=O)N[C@@H](Cc2ccc(O)cc2)C(=O)N[C@@H](CC(=O)O)C(=O)N[C@@H](CC(C)C)C(=O)N1)C(=O)N[C@@H](CC(C)C)C(N)=O [SEQ ID NO: 57, GFHCPYDLCHIL] (H-GFHCPYDLCHIL-NH2; disulfide 4-9 (inferred); N-terminus and C-terminus assumed)
27 | 3.4 µM | C[C@@H](O)[C@@H]1NC(=O)CNC(=O)[C@H](Cc2ccc(O)cc2)NC(=O)[C@H](Cc2ccc(O)cc2)NC(=O)[C@H](CC(=O)O)NC(=O)[C@@H](NC(=O)[C@@H]2CCCN2C(=O)[C@@H](N)CCCNC(=N)N)CSSC[C@@H](C(=O)N[C@@H](Cc2ccccc2)C(=O)N[C@@H](CC(=O)O)C(N)=O)NC1=O [SEQ ID NO: 8, RPCDYYGTCFD] (H-RPCDYYGTCFD-NH2; disulfide 3-9)
28 | 12.3 µM | CC(C)C[C@H](NC(=O)[C@@H]1CSSC[C@H](NC(=O)[C@@H]2CCCN2C(=O)[C@@H](N)CC(C)C)C(=O)N[C@@H](CC(=O)O)C(=O)N[C@@H](Cc2ccc(O)cc2)C(=O)N[C@@H](Cc2ccc(O)cc2)C(=O)N[C@@H](C)C(=O)N[C@@H]([C@@H](C)O)C(=O)N1)C(=O)N[C@@H](CC(=O)O)C(N)=O [SEQ ID NO: 45, LPCDYYATCLD]
29 | > 500 µM | CC(C)C[C@H](NC(=O)[C@@H]1CSSC[C@H](NC(=O)[C@@H]2CCCN2C(=O)[C@@H](N)CC(C)C)C(=O)N[C@@H](CC(=O)O)C(=O)N[C@@H](Cc2ccc(O)cc2)C(=O)N[C@@H](Cc2ccc(O)cc2)C(=O)NCC(=O)N[C@@H](CCO)C(=O)N1)C(=O)N[C@@H](CC(=O)O)C(N)=O [SEQ ID NO: 50, LPCDYYGHseCLD] (H-LPCDYYG[hSer]CLD-NH2; disulfide 3-9)

Same assay, conditions: sequences of phage isolates from TN10-9 and TN6-6 libraries (Table 5); read-out: Kd DD(E)

Row | Kd | Molecule
30 | ~10 µM | RFLCYDSYYHWWCSHH [compound 19]
